Measurements published in the nanobody polyreactivity screen of Harvey et al. (2022).

Experiment: yeast display, Sf9 membrane polyspecificity reagent, FACS + sequencing; frameworks hold sequencing errors
Outline: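 Galactose-induced (36–48 hours) yeast carrying a synthetic nanobody display library were exposed to 10% biotinylated, detergent-solubilized Sf9 membrane reagent at 4 °C for 1 hour. FACS followed streptavidin microbead enrichment, using low and high (top ~1%) gates for expression (anti-HA) and reagent binding (streptavidin). Colony PCR, MiSeq 2 × 250 sequencing and CDR-length filtering followed. Labels for polyreactivity reflect the gate of origin.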

Row | Sequence | polyreactivity (PSR sort gate)
1 | QVQLVESGGGLVQAGGSLRLSCAASGFTFVINDMGWYRQAPGTERELVADITSGGDTYYADSVKGRFTISRDNAKNTDYLQLNSLKPEDTAVYYCAADIYPDWIYLLYGYWGQGTQVTVSS | low polyreactivity
2 | QVQLVESGGGLVQAGGSLRLSCAASGFTFVKNAMGWYRQAPGKERELVAAITGSAGRTYYADSVKGRFTISRANAKNTVYLQMNSLKPEDTAVYYCNVYYGYFRSRYGYWGQGTQVTVSS | high polyreactivity
3 | QVQLVESGGGLVQAGGSLRLSCAASGFTFVNYAMGWYRQAPGKERELVAAIRRSGSRTYYADSVKGRFTISRDNAKNTVYLQINSLKPEDTAVYYCGAVCYRLYGYWGQGTQVTVSS | low polyreactivity
4 | QVQLVESGGGLVQAGGSLRLSCAASGFTFVNYAMGWYRQAPWKERELVAAIRRSGSRTYYADSVKGRFTISRDIAKNTVYLQMNCLNPEDTAVYYCAAVWYRLYGYWGQGTQVTVSS | low polyreactivity
5 | QVQLVESGGGLVQAGGSLRLSCAASGFTFVPYAMGWYRQAPGKERETNADSVKGRFTISRDNAKNTVYLQMNSLKPEDTAVYYCAAGGYGPYDYWGQGTQVTVSS | low polyreactivity
6 | QVQLVESGGGLVQAGGSLRLSCAASGFTFVRNTMGWYRQAPGKERELVAAISRSGGSTYYADSVKGRFTISRDNAKNTVYLQMYSLKPEDTAVYYCNAYRYVHYDWGQGSQVTVSS | high polyreactivity
7 | QVQLVESGGGLVQAGGSLRLSCAASGFTFVRNTMGWYRQATGKERELVAAISRSGGSTYYADSVKGRFTISRDNAKNTVYFKIYSLKPEDSAVYYCNAYRYVHYDWGHGTQVTVSS | high polyreactivity
8 | QVQLVESGGGLVQAGGSLRLSCAASGFTFVRNTMGWYRQPPGKETELVAAINRSGGNTYYADSVKGRFTISRDNAKNTVYLQMNCLKPEDTAVYYCAADGFGRRDYYYWGQGTQVTVSS | high polyreactivity
9 | QVQLVESGGGLVQAGGSLRLSCAASGFTFVRYAMGWYRKAPGKERELVAAISGSGDRTYYADSVKGRFTISRDNAKNTVYLQMNSLKPEDTAVYYCAKKSLGARHTGRYNYWGQGTQVTVSS | high polyreactivity
10 | QVQLVESGGGLVQAGGSLRLSCAASGFTFVRYAMGWYRQAPGKEREFVASISARGGNTFYADSVKGRFTISRDNAKNTVYLQMNSLKPEDTAVYYCAKRGPYGTGYGYWGQGTQVTVSS | high polyreactivity
11 | QVQLVESGGGLVQAGGSLRLSCAASGFTFVRYAMGWYRQAPGKERELVAAISRRGGSTYYADSVKGRFTISRDNAKNTVYLQMNSLKPEDTAVYYCAARAPYRRVRMNYWGQGTQVTVSS | high polyreactivity
12 | QVQLVESGGGLVQAGGSLRLSCAASGFTFVRYAMGWYRQAPGKERELVAVISRSGGSTNYADSVKGRFTISRDNAKNTVYLQMNSLKAEDTAVYYCNVVVKGAWDYYPYDYWGQGTQVTVSS | high polyreactivity
13 | QVQLVESGGGLVQAGGSLRLSCAASGFTFVRYVMGWSRQAPGKERELVAAISRSGGSTHYADSVKGRFTISRDNAKNTVYLQMNSLKPEDTAVYYCAAASPRWPGQGDYWGQGTQVTVSS | high polyreactivity
14 | QVQLVESGGGLVQAGGSLRLSCAASGFTFVSNALGWYRQAPGKETELVADITSDGSTNYADSVKGRFSISRDNAKNTVYLQMNSLKPEDTAVYYCATDQRSHTWVNQFDYWGLGTQVTVSS | low polyreactivity
15 | QVQLVESGGGLVQAGGSLRLSCAASGFTFVSNDMGWYRQAPGKERELVAVITTGDTSTSYADSVKGRFTISRDNAKNTVYLQMNSLKPEDTAVYYCAADPHDTVRHDALVELEYWGQGTQVTVSS | low polyreactivity
16 | QVQLVESGGGLVQAGGSLRLSCAASGFTFVSYAMGWYRQAPGKERELVAAISRSGGTTYYADSVKGRFTISRDNAKNTGYFQMNSLKPEDTAVYYCAADFYVFYTRYYYWGQGTQVTVSS | low polyreactivity
17 | QVQLVESGGGLVQAGGSLRLSCAASGFTFVSYAMGWYRQAPGKERELVATITSDGSTNYADSVKGRFTISRDNAKNTVYLQMNSLKPEDTAVYYCAADIHYYPGYLAYDYWGQGTQVTVSS | low polyreactivity
18 | QVQLVESGGGLVQAGGSLRLSCAASGFTFVTNAMGWYRQAPGKERELVAAISRRGGSTYYADSVKGRFTISRDIAKNTVNLEMNSLKPEDTAVYYCNADRQRRRQFSFSSPYDYWGQGTLVTVSS | high polyreactivity
19 | QVQLVESGGGLVQAGGSLRLSCAASGFTFVTNAMGWYRQAPGKERELVAAISRRGGSTYYADSVKGRFTISRDNAKNTVDLQMNSLKPEDTPVYYCNADRQRRRQFSFSSPYDYWGQGTQVTVSS | high polyreactivity
20 | QVQLVESGGGLVQAGGSLRLSCAASGFTFVVYTMGWYRQAPGKEREFVAVISESGGSTYYADSVKGRFTISRDNAKNTVYLQMNSLKPEDTAVYYCAARTRYYRDNYWGQVTQVTVSS | high polyreactivity
21 | QVQLVESGGGLVQAGGSLRLSCAASGFTFVWNARGWYRQAPGKERELVAVISYSGGSTYYADSVKGRFTISRDNAKNTVYLQMNSLKPEETAVDYCAAEFVTYYSSSKRAYYYWGQGTLVTVSS | high polyreactivity
22 | QVQLVESGGGLVQAGGSLRLSCAASGFTFVWYAMGWYRQAPGKERELVAAISRRGTRTYYADSVKGRFTISRDNAKNTVYLQMNSLKPEDTAVYYCAASPWGGYGYWGQGTQVTLSS | high polyreactivity

Row | Sequence | polyreactivity (PSR sort gate)
23 | QVQLVESGGGLVQAGGSLRLSCAASGFTFVYYAMGWYRQAPGKEREFVAAISLSGGSTYYADSVKGRFTISRDNAKNTVYLQMNSLKPEDTAVYYCATDWSLRIERDYGYWGQGTQVTVSS | low polyreactivity
24 | QVQLVESGGGLVQAGGSLRLSCAASGFTFVYYAMGWYRQAPGKERELVAAIRSGGSTNYADSVKGRFTISRDNAKNTVYLQMNSLKPEDTAVYYCAAAYWKGRLVRYYYWGQGTQVTVSS | high polyreactivity
25 | QVQLVESGGGLVQAGGSLRLSCAASGFTFVYYAMGWYRQAPGKERELVAAISGRGGSTYYADSVKGRFTISRDNAKNTVYLQMNSLKPEDTAVYYCATTYSWYYVPDKTHIYYYWGQGTQVTVSS | low polyreactivity
26 | QVQLVESGGGLVQAGGSLRLSCAASGFTFVYYAMGWYRQAPGKERELVAAISTRGGSTYYADSVKGRFTISRDNAKNTVYLQMTSLKPEDTAVYYCAARSYPPGLRFDYWGQGTQVTVSS | high polyreactivity
27 | QVQLVESGGGLVQAGGSLRLSCAASGFTFVYYAMGWYRQEPGKERELVAAISRSGGSTYYADSVKGRFTISRDNAKNTVYLQMNSLKPEDTEVYYCAAVTYANYYYDAYYYWGQGTQVTVSS | high polyreactivity
28 | QVQLVESGGGLVQAGGSLRLSCAASGFTFVYYVMGRYRPAPGKERDLVAAINAGGGSTYYADSVKGRFTISRDNAKNTVYLQMNSLKPEDTSVYYCAARYHTSTRPCRNYWGQGTQVTVSS | high polyreactivity
29 | QVQLVESGGGLVQAGGSLRLSCAASGFTFWAYTMGWYRQAPGKERELVAAITRSGGRTYYADSVKGRFTISRDNAKNTVYLQLNSLKPEDTAVYYCAAKIWSKDEKHDYWGQGTQVTGSS | high polyreactivity
30 | QVQLVESGGGLVQAGGSLRLSCAASGFTFWEYALGWYRQAPGKERELVAAISRGTSTYYADSVKGRFTIPRDNAKNTVYLQMNSLKPEDTAVYYCAARQDPPLGYDYWGQGTQVTVSS | low polyreactivity
31 | QVQLVESGGGLVQAGGSLRLSCAASGFTFWEYAMGWYRQAPGKERELVAAISSRGTRTYYADSVKGRFTISRDNAKNTVYLQMNSLKPEDTAVYYCATAIPDPDYIHNYWGQGTQVTVSS | high polyreactivity
32 | QVQLVESGGGLVQAGGSLRLSCAASGFTFWKYAMGWYRQAPGKERELVAAISWSGGNTYYADSVKGRFTISRDNAKNTVYLQMNSLKPEDTAVYYCAAVYTPQNQFRYKYYYWGQGTQVTVSS | high polyreactivity
33 | QVQLVESGGGLVQAGGSLRLSCAASGFTFWLYAMGWYRQAPGKEREFVAAISTSGGSTYADSVKGRFTISRDNAKNTVYLQMNSLKPEDTAVYYCNADPTTTTYRHQYNYWGQGTQVTVSS | low polyreactivity
34 | QVQLVESGGGLVQAGGSLRLSCAASGFTFWRYALGWYRQAPGKETEFVASITWSGGSTYYADSVKGRFTISRDNAKNTVYLQMNRLQPEDTAVYYCAAVARTSGIKYYYWGQGTQVTVSS | high polyreactivity
35 | QVQLVESGGGLVQAGGSLRLSCAASGFTFWRYAMGWSRQATGKERELVAVITWSGTRTYYADSVKGRFTISRDNAKNTVYLQMNSLKPEDTAVYYCAAYITDVAGRAYDYWGQGTQVTVSS | high polyreactivity
36 | QVQLVESGGGLVQAGGSLRLSCAASGFTFWRYAMGWYRQAPGKERELVAAINWSGGSTNYADSVKGRFTISRDNAKNTVYLQMNSLKPEDTAVYYCAVDPYQNDPSRWYTYPRRGNYWGQGTQVTVSS | high polyreactivity
37 | QVQLVESGGGLVQAGGSLRLSCAASGFTFWSYAMGWYRPAPGKERELVAAISRGGSTSYADSVKGRFTISRDNAKNTVYLLMNSLKPEDTAVYYCAALRPYRNDKGDYWGQGTQVTVSS | high polyreactivity
38 | QVQLVESGGGLVQAGGSLRLSCAASGFTFWSYAMGWYRQAPGKERELVAGITIDGNTYYADSVKGRFTISRDNAKNTVYLQMNSLKPEDTAVYYCAAVAYYYGYDYWGQGTQVTVSS | low polyreactivity
39 | QVQLVESGGGLVQAGGSLRLSCAASGFTFWSYTMGRYRQPHGKETELVADISWSGGSTYYADSVKGRFTISRDNAKNTVYLQMNSLKPEDTAVLYCNADGPFWARRSSRYYWGQGTQVTVSS | high polyreactivity
40 | QVQLVESGGGLVQAGGSLRLSCAASGFTFWTYAMGWYRQAPGKERELVATISKRGGSTYYADSVKGRFTISRDNAMNTVYLQMNSLKPEVTAVYYCNRPSYGKEMDYWGQGTQVTVSS | high polyreactivity
41 | QVQLVESGGGLVQAGGSLRLSCAASGFTFWTYARGWYRQAPGKERELVAAIDSGGSTYYADSVKGRFTISRDNAKNTVYLQMNSLKPEDTAVYYCNAGPSVTSGYDYDYWGQGTQVTVSS | low polyreactivity
42 | QVQLVESGGGLVQAGGSLRLSCAASGFTFWWYAMGWYRQAPGKERELVASIDTRGGTYYADSVKGRFTISRDNAKNTVYLQMNRLKPEDTAVYYCNADGAYGNYRGGYWGQGTQVTVSS | high polyreactivity
43 | QVQLVESGGGLVQAGGSLRLSCAASGFTFWYYAMGWYRQAPGKERELVAAITSGGTTYYADSVKGRFTISRDNAKNTVYLQMNSLKPEDTAVYYCAALLSIYRSQYDYWGQGTQVTVSS | high polyreactivity
